According to article PMC12416549 (2024):
Changes are numbered by the printed parent chain. In names and notes the source's numbering stands. Blank lines part the entries; values can stand above or below the binder they belong to.

Biological target: T1, TNFR1 (Homo sapiens, UniProt P19438)
T1 chain: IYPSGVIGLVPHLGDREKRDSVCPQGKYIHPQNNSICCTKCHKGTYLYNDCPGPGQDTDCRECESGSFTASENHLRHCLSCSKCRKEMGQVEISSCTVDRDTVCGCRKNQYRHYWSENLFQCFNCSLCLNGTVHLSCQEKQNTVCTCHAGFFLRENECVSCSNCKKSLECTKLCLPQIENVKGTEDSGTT
Experiment: yeast display SC50

- apparent Kd (screen): 1270 pM
B1: A80N (designed binder)
chain: MTLQELLREEALRRAEAEAFRYALELLAEKFPEQKEYLLDLAEEIESQIRSLSGVDVEDVRKFLDKEWAWVKELLAEHPNELAEVEAARAARLAELRAEVEAKVAA

- apparent Kd (screen): 2730 pM
B2: L82E (designed binder)
chain: B1 chain with N80A, L82E

- apparent Kd (screen): 539 pM
B7: R92W (designed binder)
chain: B1 chain with N80A, R92W

- apparent Kd (screen): 539 pM
B8: A94E (designed binder)
chain: B1 chain with N80A, A94E

- apparent Kd (screen): 2480 pM
B11: L75P (designed binder)
chain: B1 chain with L75P, N80A

- apparent Kd (screen): 2050 pM
B12: F63N (designed binder)
chain: B1 chain with F63N, N80A

- apparent Kd (screen): 2480 pM
B13: L74E (designed binder)
chain: B1 chain with L74E, N80A

- apparent Kd (screen): 956 pM
B16: R89W (designed binder)
chain: B1 chain with N80A, R89W

- apparent Kd (screen): 718 pM
B19: A88M (designed binder)
chain: B1 chain with N80A, A88M

- apparent Kd (screen): 956 pM
B23: A94I (designed binder)
chain: B1 chain with N80A, A94I

- apparent Kd (screen): 593 pM
B24: A83E (designed binder)
chain: B1 chain with N80A, A83E

- apparent Kd (screen): 446 pM
B26: A94H (designed binder)
chain: B1 chain with N80A, A94H

- apparent Kd (screen): 869 pM
B27: H78V (designed binder)
chain: B1 chain with H78V, N80A

- apparent Kd (screen): 653 pM
B29: E77D (designed binder)
chain: B1 chain with E77D, N80A

- apparent Kd (screen): 539 pM
B30: R97T (designed binder)
chain: B1 chain with N80A, R97T

- apparent Kd (screen): 5840 pM
B31: L82D (designed binder)
chain: B1 chain with N80A, L82D

- apparent Kd (screen): 653 pM
B34: V85N (designed binder)
chain: B1 chain with N80A, V85N

- apparent Kd (screen): 539 pM
B37: K66W (designed binder)
chain: B1 chain with K66W, N80A

- apparent Kd (screen): 446 pM
B38: A90K (designed binder)
chain: B1 chain with N80A, A90K

- apparent Kd (screen): 490 pM
B39: R97W (designed binder)
chain: B1 chain with N80A, R97W

- apparent Kd (screen): 956 pM
B40: A94P (designed binder)
chain: B1 chain with N80A, A94P

- apparent Kd (screen): 790 pM
B42: A102S (designed binder)
chain: B1 chain with N80A, A102S

- apparent Kd (screen): 446 pM
B43: A76D (designed binder)
chain: B1 chain with A76D, N80A

- apparent Kd (screen): 5840 pM
B45: E67C (designed binder)
chain: B1 chain with E67C, N80A

- apparent Kd (screen): 869 pM
B46: V85S (designed binder)
chain: B1 chain with N80A, V85S

- apparent Kd (screen): 539 pM
B48: L93F (designed binder)
chain: B1 chain with N80A, L93F

- apparent Kd (screen): 1400 pM
B49: G54N (designed binder)
chain: B1 chain with G54N, N80A

- apparent Kd (screen): 539 pM
B50: A76Y (designed binder)
chain: B1 chain with A76Y, N80A

- apparent Kd (screen): 869 pM
B51: A105F (designed binder)
chain: B1 chain with N80A, A105F

- apparent Kd (screen): 446 pM
B52: A80L (designed binder)
chain: B1 chain with N80L

- apparent Kd (screen): 790 pM
B53: E86M (designed binder)
chain: B1 chain with N80A, E86M

- apparent Kd (screen): 490 pM
B55: H78R (designed binder)
chain: B1 chain with H78R, N80A

- apparent Kd (screen): 790 pM
B57: V55C (designed binder)
chain: B1 chain with V55C, N80A

Further lines, the binder ahead of its results:

B3: R50T (designed binder)
chain: B1 chain with R50T, N80A
- apparent Kd (screen): 490 pM

B4: E29D (designed binder)
chain: B1 chain with E29D, N80A
- apparent Kd (screen): 490 pM

B5: A17P (designed binder)
chain: B1 chain with A17P, N80A
- apparent Kd (screen): 718 pM

B6: A23D (designed binder)
chain: B1 chain with A23D, N80A
- apparent Kd (screen): 2250 pM

B9: R8I (designed binder)
chain: B1 chain with R8I, N80A
- apparent Kd (screen): 593 pM

B10: Y22H (designed binder)
chain: B1 chain with Y22H, N80A
- apparent Kd (screen): 490 pM

B14: S47K (designed binder)
chain: B1 chain with S47K, N80A
- apparent Kd (screen): 653 pM

B15: A28L (designed binder)
chain: B1 chain with A28L, N80A
- apparent Kd (screen): 20200 pM

B17: L12Y (designed binder)
chain: B1 chain with L12Y, N80A
- apparent Kd (screen): 539 pM

B18: A23V (designed binder)
chain: B1 chain with A23V, N80A
- apparent Kd (screen): 653 pM

B20: Y37F (designed binder)
chain: B1 chain with Y37F, N80A
- apparent Kd (screen): 2480 pM

B21: S53D (designed binder)
chain: B1 chain with S53D, N80A
- apparent Kd (screen): 8560 pM

B22: L3V (designed binder)
chain: B1 chain with L3V, N80A
- apparent Kd (screen): 593 pM

B25: A15K (designed binder)
chain: B1 chain with A15K, N80A
- apparent Kd (screen): 490 pM

B28: A17K (designed binder)
chain: B1 chain with A17K, N80A
- apparent Kd (screen): 1160 pM

B32: R14T (designed binder)
chain: B1 chain with R14T, N80A
- apparent Kd (screen): 490 pM

B33: L7N (designed binder)
chain: B1 chain with L7N, N80A
- apparent Kd (screen): 24400 pM

B35: L27S (designed binder)
chain: B1 chain with L27S, N80A
- apparent Kd (screen): 593 pM

B36: R21Q (designed binder)
chain: B1 chain with R21Q, N80A
- apparent Kd (screen): 539 pM

B41: I45S (designed binder)
chain: B1 chain with I45S, N80A
- apparent Kd (screen): 7780 pM

B44: E29I (designed binder)
chain: B1 chain with E29I, N80A
- apparent Kd (screen): 1160 pM

B47: Q34E (designed binder)
chain: B1 chain with Q34E, N80A
- apparent Kd (screen): 653 pM

B54: G54K (designed binder)
chain: B1 chain with G54K, N80A
- apparent Kd (screen): 12500 pM

B56: E33Y (designed binder)
chain: B1 chain with E33Y, N80A
- apparent Kd (screen): 539 pM

B58: E5M (designed binder)
chain: B1 chain with E5M, N80A
- apparent Kd (screen): 593 pM

B59: E9M (designed binder)
chain: B1 chain with E9M, N80A
- apparent Kd (screen): 653 pM
